From patent US20110159022A1 (published 2011)

B1: MDK 1-15 (peptide)
peptide: MQHRGFLLLTLLALL
notes: synthetic 15-mer of the human midkine precursor; also called peptide 1-15
B2: MDK 4-18 (peptide)
peptide: RGFLLLTLLALLALT
notes: synthetic 15-mer of the human midkine precursor; also called MDK2; peptide 4-18
B3: MDK 14-28 (peptide)
peptide: LLALTSAVAKKKDKV
notes: synthetic 15-mer of the human midkine precursor; also called MDK4; peptide 14-28
B4: MDK 9-23 (peptide)
peptide: LTLLALLALTSAVAK
notes: synthetic 15-mer of the human midkine precursor; also called MDK3; peptide 9-23
B5: MDK 110-124 (peptide)
peptide: ARYNAQCQETIRVTK
notes: synthetic 15-mer of the human midkine precursor; also called MDK17

Each binder was assayed against HLA-DRB3 (DRB3*0101) (human) (assay: competition ELISA, tracer biotin-LOL 191-210).

First: CRVPCNWKKEFGADC (also called MDK10) [MDK 70-84]
Second: CNWKKEFGADCKYKF (also called MDK11) [MDK 74-88]
The relative binding activity of the first is lower: 621 IC50 ratio to reference peptide for the first, 877 IC50 ratio to reference peptide for the second.

First: KEFGADCKYKFENWG (also called MDK12) [MDK 78-92]
Second: ENWGACDGGTGTKVR (also called MDK14) [MDK 89-103]
The relative binding activity of the first is lower: 226 IC50 ratio to reference peptide for the first, 2330 IC50 ratio to reference peptide for the second.

Compared with B1, B2 is lower in relative binding activity: 267 IC50 ratio to reference peptide for the first, 37 IC50 ratio to reference peptide for the second.

What follows are binders tested against HLA-DR3 (DRB1*0301) (human) (assay: competition ELISA, tracer biotin-MT 2-16).

First: CNWKKEFGADCKYKF (also called MDK11) [MDK 74-88]
Second: KEFGADCKYKFENWG (also called MDK12) [MDK 78-92]
The relative binding activity of the first is higher: 2 IC50 ratio to reference peptide for the first, 1 IC50 ratio to reference peptide for the second.

The binders below were run against HLA-DR13 (DRB1*1301) (human) (assay: competition ELISA, tracer biotin-B1 21-36).

Compared with GTKVRQGTLKKARYN (also called MDK15) [MDK 99-113], B3 is lower in relative binding activity: 74 IC50 ratio to reference peptide for the first, 45 IC50 ratio to reference peptide for the second.

Each binder was assayed against HLA-DR7 (DRB1*0701) (human) (assay: competition ELISA, tracer biotin-YKL).

First: QTQRIRCRVPCNWKK (also called MDK9) [MDK 64-78]
Second: ETIRVTKPCTPKTKA (also called MDK18) [MDK 119-133]
The relative binding activity of the first is higher: 2070 IC50 ratio to reference peptide for the first, 819 IC50 ratio to reference peptide for the second.

Compared with B1, B2 is lower in relative binding activity: 49 IC50 ratio to reference peptide for the first, 20 IC50 ratio to reference peptide for the second.

Compared with B4, B3 is higher in relative binding activity: 13 IC50 ratio to reference peptide for the first, 590 IC50 ratio to reference peptide for the second.

The binders below were run against HLA-DRB4 (DRB4*0101) (human) (assay: competition ELISA, tracer biotin-E2/E168).

First: QTQRIRCRVPCNWKK (also called MDK9) [MDK 64-78]
Second: B1
The relative binding activity of the first is higher: 1160 IC50 ratio to reference peptide for the first, 204 IC50 ratio to reference peptide for the second.

In the case of B2, the relative binding activity is reported as 65 IC50 ratio to reference peptide.

What follows are binders tested against HLA-DP401 (DPB1*0401) (human, UniProt P20036 29-222, limits assumed) (assay: competition ELISA, tracer biotin-Oxy 271-287).

First: CRVPCNWKKEFGADC (also called MDK10) [MDK 70-84]
Second: KEFGADCKYKFENWG (also called MDK12) [MDK 78-92]
The relative binding activity of the first is lower: 7 IC50 ratio to reference peptide for the first, 167 IC50 ratio to reference peptide for the second.

Compared with CKYKFENWGACDGGT (also called MDK13) [MDK 84-98], B1 is lower in relative binding activity: 52 IC50 ratio to reference peptide for the first, 20 IC50 ratio to reference peptide for the second.

First: B2
Second: B4
The relative binding activity of the first is lower: 6 IC50 ratio to reference peptide for the first, 94 IC50 ratio to reference peptide for the second.

Each binder was assayed against T1, HLA-DP402 (DPB1*0402) (human, UniProt P20036 29-222, limits assumed) (assay: competition ELISA, tracer biotin-Oxy 271-287).
T1 construct: also called DP*0402

Compared with AEWAWGPCTPSSKDC (also called MDK7) [MDK 38-52], KEFGADCKYKFENWG (also called MDK12) [MDK 78-92] is higher in relative binding activity: 239 IC50 ratio to reference peptide for the first, 378 IC50 ratio to reference peptide for the second.

Compared with CKYKFENWGACDGGT (also called MDK13) [MDK 84-98], B1 is lower in relative binding activity: 49 IC50 ratio to reference peptide for the first, 19 IC50 ratio to reference peptide for the second.

Compared with B2, B4 is higher in relative binding activity: 18 IC50 ratio to reference peptide for the first, 29 IC50 ratio to reference peptide for the second.

Each binder was assayed against HLA-DR11 (DRB1*1101) (human) (assay: competition ELISA, tracer biotin-HA 306-318).

First: AEWAWGPCTPSSKDC (also called MDK7) [MDK 38-52]
Second: QTQRIRCRVPCNWKK (also called MDK9) [MDK 64-78]
The relative binding activity of the first is higher: 923 IC50 ratio to reference peptide for the first, 504 IC50 ratio to reference peptide for the second.

First: CNWKKEFGADCKYKF (also called MDK11) [MDK 74-88]
Second: KEFGADCKYKFENWG (also called MDK12) [MDK 78-92]
The relative binding activity of the first is higher: 1230 IC50 ratio to reference peptide for the first, 800 IC50 ratio to reference peptide for the second.

Compared with GTLKKARYNAQCQET (also called MDK16) [MDK 105-119], B5 is lower in relative binding activity: 1010 IC50 ratio to reference peptide for the first, 69 IC50 ratio to reference peptide for the second.

First: ETIRVTKPCTPKTKA (also called MDK18) [MDK 119-133]
Second: B1
The relative binding activity of the first is higher: 763 IC50 ratio to reference peptide for the first, 7 IC50 ratio to reference peptide for the second.

First: B2
Second: B4
The relative binding activity of the first is higher: 94 IC50 ratio to reference peptide for the first, 0.3 IC50 ratio to reference peptide for the second.

For B3, the relative binding activity was 48 IC50 ratio to reference peptide.

These binders were tested against HLA-DR4 (DRB1*0401) (human) (assay: competition ELISA, tracer biotin-HA 306-318).

Compared with AEWAWGPCTPSSKDC (also called MDK7) [MDK 38-52], QTQRIRCRVPCNWKK (also called MDK9) [MDK 64-78] is lower in relative binding activity: 1860 IC50 ratio to reference peptide for the first, 558 IC50 ratio to reference peptide for the second.

First: CRVPCNWKKEFGADC (also called MDK10) [MDK 70-84]
Second: KEFGADCKYKFENWG (also called MDK12) [MDK 78-92]
The relative binding activity of the first is higher: 1560 IC50 ratio to reference peptide for the first, 457 IC50 ratio to reference peptide for the second.

First: CKYKFENWGACDGGT (also called MDK13) [MDK 84-98]
Second: GTLKKARYNAQCQET (also called MDK16) [MDK 105-119]
The relative binding activity of the first is lower: 362 IC50 ratio to reference peptide for the first, 492 IC50 ratio to reference peptide for the second.

First: B5
Second: ETIRVTKPCTPKTKA (also called MDK18) [MDK 119-133]
The relative binding activity of the first is lower: 6 IC50 ratio to reference peptide for the first, 1290 IC50 ratio to reference peptide for the second.

First: B4
Second: B3
The relative binding activity of the first is lower: 1 IC50 ratio to reference peptide for the first, 401 IC50 ratio to reference peptide for the second.

What follows are binders tested against HLA-DR1 (DRB1*0101) (human) (assay: competition ELISA, tracer biotin-HA 306-318).

First: AEWAWGPCTPSSKDC (also called MDK7) [MDK 38-52]
Second: CRVPCNWKKEFGADC (also called MDK10) [MDK 70-84]
The relative binding activity of the first is higher: 1300 IC50 ratio to reference peptide for the first, 53 IC50 ratio to reference peptide for the second.

Compared with CNWKKEFGADCKYKF (also called MDK11) [MDK 74-88], ENWGACDGGTGTKVR (also called MDK14) [MDK 89-103] is higher in relative binding activity: 333 IC50 ratio to reference peptide for the first, 1460 IC50 ratio to reference peptide for the second.

First: GTKVRQGTLKKARYN (also called MDK15) [MDK 99-113]
Second: GTLKKARYNAQCQET (also called MDK16) [MDK 105-119]
The relative binding activity of the first is higher: 3000 IC50 ratio to reference peptide for the first, 97 IC50 ratio to reference peptide for the second.

First: B5
Second: ETIRVTKPCTPKTKA (also called MDK18) [MDK 119-133]
The relative binding activity of the first is higher: 10 IC50 ratio to reference peptide for the first, 2 IC50 ratio to reference peptide for the second.

B1 and B2 are the same in relative binding activity: 21 IC50 ratio to reference peptide for the first, 21 IC50 ratio to reference peptide for the second.

First: B4
Second: B3
The relative binding activity of the first is lower: 0.2 IC50 ratio to reference peptide for the first, 34 IC50 ratio to reference peptide for the second.

For KDKVKKGGPGSECAE (also called MDK6) [MDK 25-39], the relative binding activity was 1250 IC50 ratio to reference peptide.

What follows are binders tested against HLA-DRB5 (DRB5*0101) (human) (assay: competition ELISA, tracer biotin-HA 306-318).

Compared with QTQRIRCRVPCNWKK (also called MDK9) [MDK 64-78], CNWKKEFGADCKYKF (also called MDK11) [MDK 74-88] is higher in relative binding activity: 61 IC50 ratio to reference peptide for the first, 714 IC50 ratio to reference peptide for the second.

Compared with KEFGADCKYKFENWG (also called MDK12) [MDK 78-92], CKYKFENWGACDGGT (also called MDK13) [MDK 84-98] is higher in relative binding activity: 114 IC50 ratio to reference peptide for the first, 292 IC50 ratio to reference peptide for the second.

First: GTKVRQGTLKKARYN (also called MDK15) [MDK 99-113]
Second: B5
The relative binding activity of the first is higher: 215 IC50 ratio to reference peptide for the first, 15 IC50 ratio to reference peptide for the second.

First: ETIRVTKPCTPKTKA (also called MDK18) [MDK 119-133]
Second: B1
The relative binding activity of the first is lower: 26 IC50 ratio to reference peptide for the first, 161 IC50 ratio to reference peptide for the second.

First: B2
Second: B4
The relative binding activity of the first is higher: 46 IC50 ratio to reference peptide for the first, 2 IC50 ratio to reference peptide for the second.

With B3 the relative binding activity was 0.1 IC50 ratio to reference peptide.

The binders below were run against HLA-DR15 (DRB1*1501) (human) (assay: competition ELISA, tracer biotin-A3 152-166).

First: B2
Second: B4
The relative binding activity of the first is higher: 19 IC50 ratio to reference peptide for the first, 5 IC50 ratio to reference peptide for the second.
